Test results published in the supplement of paper PMC10567573.

B1: TRIM39 (parent)
chain: ERDFPCPVCRKTSRYRSLRPNRQL
B2: FBF1 (parent)
chain: QLQCSPAELQAELLHSQARLAELE

Variants of: B1
Experiment: protein stability index of a GFP-peptide fusion (GPS, HEK-293T) (PSI 1-6); higher = more stable
Conditions: c terminus: a fixed tail appended
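Also: lentivirally expressed fusions sorted by FACS into six bins by GFP to DsRed ratio, PSI derived from sequencing read proportions per bin multiplied by bin number.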

Protein stability index, by site and new letter:
L24: I 1.85; H 2.82; Q 3.08; T 2.51; S 3.32; N 2.41; R 3.37; W 1.36; G 2.06; A 1.81; F 2.04; P 3.2; V 2.19; C 3.12; D 1.75
Q23: A 1.33; T 2.9; D 2.34; H 3.18; F 1.67; I 1.68; S 2.17; K 1.92; P 1.47; N 2.77; Y 1.66; G 2.46; M 2.27; C 1.8; L 1.87; W 2.26; R 1.71
R22: Y 2.23; T 2.04; V 1.76

Variants of: B2
Experiment: as above
Conditions: c terminus: a fixed tail appended

Protein stability index: each site, then its substitutions
C4: R 3.94; W 2.82; S 3.82; L 3.92; G 3.32; P 3.65; M 3.82; I 2.93; T 3.49; N 3.26; A 3.99; V 2.96; H 3.15; K 4.23; D 4.22; F 3.14; Y 3.77; Q 3.92; E 4.39
L9: Q 4.62; G 4.96; P 4.79; M 4.3; K 4.57; I 4.14; R 4.51; N 4.92; T 4.45; H 4.18; S 5.05; C 3.85; V 4.4; E 5.3; D 5.05; Y 4.64; F 4.1; W 4.52; A 4.79
Q10: N 3.54; G 3.85; I 2.04; H 3.1; A 2.93; M 2.29; T 3.91; P 4.69; Y 1.89; S 3.7; D 5.13; C 2.45; K 3.74; F 1.79; E 3.95; V 2.56; R 2.56; L 2.17; W 2.21
L2: D 3.65; V 3.68; E 4.46; Q 3.85; Y 3.35; I 2.82; A 3.02; W 2.75; G 3.38; H 3.21; R 2.59; N 3.52; C 2.42; S 3.96; K 2.89; T 2.94; P 4.15; M 3.61; F 2.83
L14: H 3.94; V 4.08; Y 3.21; S 3.67; N 2.85; M 2.93; W 2.93; R 3.33; F 3.27; G 4.5; C 3.3; K 3.72; D 4.88; T 3.61; I 3.83; A 2.89; Q 3.59; E 4.39; P 4.8
S5: K 3.23; Q 3.69; V 3.03; P 3.67; T 3.85; M 3.23; H 3.01; R 2.66; N 2.94; L 3.13; C 3.03; Y 3.01; W 2.64; E 3.25; G 2.79; I 3.25; D 2.74; A 3.48; F 2.87
A11: R 2.62; F 2.41; I 2.24; K 3.04; H 3.38; T 3.37; V 2.87; Q 3.28; M 2.01; G 4.24; S 2.77; L 1.71; D 2.94; Y 2.3; E 4.26; P 4.43; W 2.59; C 3.89; N 3.1
E8: M 2.06; T 2.41; P 3.86; K 2.79; R 2.33; G 2.76; Q 2.67; Y 2.25; A 1.66; N 2.84; V 2.18; I 2.28; S 2.17; D 2.55; C 1.72; L 2.27; H 2.48; W 1.79; F 2.13
S16: N 4.33; E 4.81; I 2.81; L 3.91; H 4.46; D 5.03; K 3.9; M 3.33; F 3.78; P 4.17; A 2.88; G 4.86; Q 4.06; C 4.23
Q1: G 2.77; C 2.91; D 3.2; L 2.62; F 2.06; Y 2.6; H 3.26; M 2.64; S 3.31; K 2.69; A 2.89; N 2.82; T 3.33; P 3.91; R 2.59; E 3.2; I 2.82; V 2.41; W 2.8
P6: V 2.44; C 2.17; F 2.28; E 2.6; H 2.19; N 3.47; R 3.1; A 2.85; D 3.56; S 3.26; Q 2.84; I 2.44; M 2.31; Y 2.14; G 2.24; T 3.66; K 4; L 2.43; W 2.51
L13: N 4.96; T 4.7; M 3.34; I 4.62; C 4.32; W 4.13; F 4.25; G 4.59; P 4.73; V 4.2; K 4.25; E 4.25; A 4.28; R 4.31; S 4.74; Y 4.52; D 5.39; H 4.85; Q 5.08
H15: Y 1.92; E 3.81; P 4.91; S 2.52; T 3.56; D 3.28; L 2.27; N 2.81; K 3.49; R 2.73; A 3.78; V 2.85; W 2.65; M 2.22; I 1.87; Q 3.71; C 2.88; G 4.04; F 1.84
A7: D 3.66; C 2.74; F 2.57; E 3.4; P 3.79; S 3.62; M 2.36; Y 1.82; I 2.94; Q 3.27; T 2.78; L 2.37; W 2.92; V 3.07; N 3.39; G 2.52; K 2.9; R 3.06; H 2.57
Q3: T 3.48; L 3.35; M 2.59; W 2.62; V 3.1; F 2.11; K 2.19; E 3.54; Y 2.12; S 3.53; G 3.25; H 2.6; N 2.81; I 2.69; P 3.01; D 3.1; A 3.13; C 2.53; R 3.21
E12: L 2.75; V 3.17; R 3.59; P 4.04; H 2.41; M 3.49; Q 2.67; A 2.47; K 3.38; Y 3.22; G 3.65; D 3.33; I 2.57; N 3.18; F 3.56; C 3.05; T 3.62; W 1.64; S 2.94
